# Data published in paper doi:10.1101/2022.03.11.483953, “Structure and regulation of the myotonic dystrophy kinase-related Cdc42-binding kinase” (bioRxiv, 2022).
# Legend:
# [1] = biological target: the molecule itself; assay: rotary shadowing electron microscopy; samples at 50 μg/ml in 100 mM ammonium acetate, 30% (v/v) glycerol, pH 7.4, sprayed on mica, coated with platinum and carbon
# [2] = biological target: T1, FITC-labeled CRIB peptide of C. elegans MRCK1 (residues 1543-1572) (C. elegans, UniProt O01583 1543-1572, fluorescein (FITC) label, position not stated); assay: fluorescence polarisation; fluorescence anisotropy; Cdc42^2-178 loaded with GMPPNP titrated into 100 nM fluorescein-labeled peptide; 20 °C, 20 mM Tris pH 8.0, 100 mM NaCl, 1 mM TCEP; one-site binding model; conditions: both partners purified
# T1 construct: MRCK1, C. elegans, CRIB motif, residues 1543-1572; also called CRIB motif peptide; fluorescein-labeled peptide
# T1 peptide (looked up): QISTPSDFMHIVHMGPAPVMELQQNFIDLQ
Binder,stoichiometry N [1],fold stronger than Cdc42 bound to GDP [2] [fold]
"C. elegans MRCK1, full length (MRCK1^1-1592) (enzyme, UniProt O01583 1-1592, looked up, source: baculovirus-infected Sf9 insect cells, purified (HisTrap, TEV cleavage, HiTrap Q); not shown: His10, N-terminal, cleaved; StrepII, N-terminal, cleaved) MAEPPPDDSAPVRLKTLENIYMDGPSKKPEALSFETLIDSLICLYDECCNSTLRKEKCIAEFVESVKTVISKAKKLRLSRDDFEVLKVIGKGAFGEVAVVRMRGVGEIYAMKILNKWEMVKRAETACFREERDVLVYGDRRWITNLHYAFQDEKNLYFVMDYYIGGDMLTLLSKFVDHIPESMAKFYIAEMVLAIDSLHRLGYVHRDVKPDNVLLDMQGHIRLADFGSCLRILADGSVASNVAVGTPDYISPEILRAMEDGRGRYGKECDWWSLGICMYEMLYGTTPFYSERLVDTYGKIMSHQDMLDFPDDEIDWVVSEEAKDLIRQLICSSDVRFGRNGLSDFQLHPFFEGIDWNTIRDSNPPYVPEVSSPEDTSNFDVDVCEDDFTPCLQETQPPRVLAAFTGNHLPFVGFSYTHGSLLSDARSLTDEIRAIAQRCQGDAELMEKSVDGFMVELENEKAELVQKLKEAQTIIAQHVAENPRSEEDRNYESTIAQLKDEIQILNKRLEDEALAQQQQKPKDEIVAESEKKLKELKERNKQLVMEKSEIQRELDNINDHLDQVLVEKATVVQQRDDMQAELADVGDSLLTEKDSVKRLQDEAEKAKKQVADFEEKLKEIETEKIALIKKQEEVTIEARKSVETDDHLSEEVVAAKNTIASLQATNEERETEIKKLKQRMDEERASHTAQSEQEMKQLEAHYERAQKMLQDNVEQMNVENRGLRDEIEKLSQQMAALPRGGLNEQQLHEIFNWVSEEKATREEMENLTRKITGEVESLKNNSPLTTSNYIQNTPSGWGSRRMNNVARKDGLDLQRQLQAEIDAKLKLKAELKNSQEQYLTSAARLDDTEKRMASLMREVAMLKQQKNIENSSDSAFSSTMGRGDLMISMNNDYEMSNSSLMRQEMISRQSTPSYENAILLHDHQVPKRVDDLRYKQKPMKTASGIFSPVSISAMERGHNFERMKIKTPTKCGHCTSILIGLDRQGLFCQSCQYACHVSCAERVSQSCPVPEEERRPLGIDPTRGVGTAYEGLVKTPRAGGVRKGWQTAYVVVCDFKLYLYDCTVDRQNKMQDVKNEIRLVLDMRDPDFTVCGVSEADVIHAQKGDIPKIFRVTTTQILNSSSEYSSSSKFYTLFMAETEEEKRKWVVALSELKTLLRRSKLADRKAFLVKEVFDVTTLPSIRVAQCCAIIDRSKIVIGFSDHGLYCIEISRQLLIPVGGEKENKQRCVETVEYDEAEQLLMMIVGPAKDRHVRIVPSAALDGRDLKWIKVNDTKGCHLLAVGTNNPGGRAGFFAVAFKKSVTIFQIDRSEKRHKKWKDLAMPGTPQSIAIFNGRLYVGFSHSFRSWSLVGVDSSPVGSGDASGAVLQHISLVNMEDTSLQFLNQQTSYEAKLIVNVPGSPDEYLLVFNMIGLYVNEMGRRSRLPEVMFPTQAKYFAYHEPYLCVFSENEVDIFNVTLAEWVQTINLRSAKPLSGDGILSTCLCNDSPIFVLLQNVLQDQDSIEVPVNLASGSTDGRKVTRRKFTFRTIGKDDRSASERRSHIQISTPSDFMHIVHMGPAPVMELQQNFIDLQSNHSHTSSDKDSLNRSVNND",2,
"Cdc42^2-178 (C-terminally truncated Cdc42 lacking its geranylgeranylation motif) (domain or fragment, Cdc42, residues 2-178, C-terminally truncated; Loaded with GDP or with GMPPNP (Dbs exchange factor, then size exclusion) before the titration; the two loaded states are told apart by the assay; The species may be human instead (P60953); also called Cdc42 (residues 2-178); source: E. coli, purified (GST beads, TEV cleavage, SD75 size exclusion); not shown: GST, N-terminal, cleaved) not shown",,5
